T1: TNFR1 (Homo sapiens, UniProt P19438)
T1 chain: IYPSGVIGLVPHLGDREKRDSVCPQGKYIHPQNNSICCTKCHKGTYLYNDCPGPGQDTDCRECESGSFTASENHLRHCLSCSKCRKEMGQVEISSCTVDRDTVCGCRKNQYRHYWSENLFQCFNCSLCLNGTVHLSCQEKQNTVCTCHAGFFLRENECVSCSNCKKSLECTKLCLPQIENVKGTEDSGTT


Molecular target: T1, TNFR1
Test: yeast display SC50

Row | apparent Kd (screen) | Binder
1 | 0.49 nM | K103G (designed binder) MTLQELLREEALRRAEAEAFRYALELLAEKFPEQKEYLLDLAEEIESQIRSLSGVDVEDVRKFLDKEWAWVKELLAEHPAELAEVEAARAARLAELRAEVEAGVAA
2 | 8.56 nM | L6H (designed binder) MTLQEHLREEALRRAEAEAFRYALELLAEKFPEQKEYLLDLAEEIESQIRSLSGVDVEDVRKFLDKEWAWVKELLAEHPAELAEVEAARAARLAELRAEVEAKVAA
3 | 0.956 nM | R50I (designed binder) MTLQELLREEALRRAEAEAFRYALELLAEKFPEQKEYLLDLAEEIESQIISLSGVDVEDVRKFLDKEWAWVKELLAEHPAELAEVEAARAARLAELRAEVEAKVAA
4 | 0.49 nM | A90I (designed binder) MTLQELLREEALRRAEAEAFRYALELLAEKFPEQKEYLLDLAEEIESQIRSLSGVDVEDVRKFLDKEWAWVKELLAEHPAELAEVEAARIARLAELRAEVEAKVAA
5 | 8.56 nM | L7C (designed binder) MTLQELCREEALRRAEAEAFRYALELLAEKFPEQKEYLLDLAEEIESQIRSLSGVDVEDVRKFLDKEWAWVKELLAEHPAELAEVEAARAARLAELRAEVEAKVAA
6 | 2.25 nM | R50P (designed binder) MTLQELLREEALRRAEAEAFRYALELLAEKFPEQKEYLLDLAEEIESQIPSLSGVDVEDVRKFLDKEWAWVKELLAEHPAELAEVEAARAARLAELRAEVEAKVAA
7 | 0.79 nM | R89V (designed binder) MTLQELLREEALRRAEAEAFRYALELLAEKFPEQKEYLLDLAEEIESQIRSLSGVDVEDVRKFLDKEWAWVKELLAEHPAELAEVEAAVAARLAELRAEVEAKVAA
8 | 0.446 nM | E99R (designed binder) MTLQELLREEALRRAEAEAFRYALELLAEKFPEQKEYLLDLAEEIESQIRSLSGVDVEDVRKFLDKEWAWVKELLAEHPAELAEVEAARAARLAELRARVEAKVAA
9 | 0.869 nM | A98E (designed binder) MTLQELLREEALRRAEAEAFRYALELLAEKFPEQKEYLLDLAEEIESQIRSLSGVDVEDVRKFLDKEWAWVKELLAEHPAELAEVEAARAARLAELREEVEAKVAA
10 | 1.4 nM | A88T (designed binder) MTLQELLREEALRRAEAEAFRYALELLAEKFPEQKEYLLDLAEEIESQIRSLSGVDVEDVRKFLDKEWAWVKELLAEHPAELAEVEATRAARLAELRAEVEAKVAA
11 | 0.539 nM | E73D (designed binder) MTLQELLREEALRRAEAEAFRYALELLAEKFPEQKEYLLDLAEEIESQIRSLSGVDVEDVRKFLDKEWAWVKDLLAEHPAELAEVEAARAARLAELRAEVEAKVAA
12 | 8.56 nM | L6E (designed binder) MTLQEELREEALRRAEAEAFRYALELLAEKFPEQKEYLLDLAEEIESQIRSLSGVDVEDVRKFLDKEWAWVKELLAEHPAELAEVEAARAARLAELRAEVEAKVAA
13 | 0.653 nM | A90G (designed binder) MTLQELLREEALRRAEAEAFRYALELLAEKFPEQKEYLLDLAEEIESQIRSLSGVDVEDVRKFLDKEWAWVKELLAEHPAELAEVEAARGARLAELRAEVEAKVAA
14 | 2.48 nM | L3R (designed binder) MTRQELLREEALRRAEAEAFRYALELLAEKFPEQKEYLLDLAEEIESQIRSLSGVDVEDVRKFLDKEWAWVKELLAEHPAELAEVEAARAARLAELRAEVEAKVAA

— article PMC12416549 (2024)
